Data published in US20200172619A1 (UNIVERSIT T STUTTGART, published 2020).
Where two headings read alike, the source gives them in different places.

Tests used:
[1] = target: T1, TNFR1 on the surface of cells (HT1080, HeLa, Kym-1) (human, UniProt P19438 30-455); assay: cell-based or functional assay
T1 sequence (looked up): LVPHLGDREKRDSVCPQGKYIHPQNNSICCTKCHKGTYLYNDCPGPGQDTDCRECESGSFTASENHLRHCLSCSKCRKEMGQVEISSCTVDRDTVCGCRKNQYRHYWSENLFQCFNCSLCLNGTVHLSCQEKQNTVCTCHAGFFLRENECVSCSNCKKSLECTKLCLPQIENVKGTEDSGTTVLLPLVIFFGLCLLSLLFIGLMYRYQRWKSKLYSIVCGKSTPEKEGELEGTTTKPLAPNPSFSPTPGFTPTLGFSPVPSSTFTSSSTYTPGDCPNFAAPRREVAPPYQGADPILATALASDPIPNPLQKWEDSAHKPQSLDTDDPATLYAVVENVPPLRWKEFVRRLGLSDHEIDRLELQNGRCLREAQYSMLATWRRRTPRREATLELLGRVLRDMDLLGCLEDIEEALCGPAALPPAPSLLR

[2] = target: T2, human TNFR1-Fc fusion protein (human, UniProt P19438 30-211); assay: ELISA, immobilized human TNFR1-Fc
T2 construct: Provided by Baliopharm AG; Coated at 1 ug/ml in the ELISA; also called huTNFR1-Fc; immobilized human TNFR1; not shown: Fc part not described
T2 sequence (looked up): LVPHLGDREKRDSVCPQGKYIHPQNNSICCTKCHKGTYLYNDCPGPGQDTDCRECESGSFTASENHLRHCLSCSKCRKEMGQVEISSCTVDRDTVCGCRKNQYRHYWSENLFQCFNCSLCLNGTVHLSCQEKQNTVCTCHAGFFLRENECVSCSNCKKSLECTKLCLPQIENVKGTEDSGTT
Protocol: Microtiter plates were coated with 100 μl of TNFFR1-Fc fusion protein (1 μg/ml in PBS) and incubated at 4° C. overnight.

[3] = target: T1, TNFR1 on the surface of cells (HT1080, …); assay: cell-based or functional assay; remark: listed apart in the source
[4] = target: T2, human TNFR1-Fc fusion protein; assay: ELISA, immobilized human TNFR1-Fc; remark: listed apart in the source
Protocol: (§1) Microtiter plates were coated with 100 μl of TNFFR1-Fc fusion protein (1 μg/ml in PBS) and incubated at 4° C. overnight. The residual binding sites were blocked with 2% MPBS (skim milk in PBS, 200 μl per well) at room temperature for 2 hours and subsequently washed twice with PBS. 100 μl of the samples diluted in 2% MPBS were incubated at room temperature for 1 hour prior to the last incubation step with 100 μl of the HRP conjugated detection antibodies in 2% MPBS. Bound protein was detected with 100 μl TMB substrate solution, the HRP-reaction was stopped by the addition of 50 μl 1 M H2SO4 and the absorption at the wavelength of 450 nm was measured using the Infinite microtiter plate reader (TECAN, Maennedorf, Switzerland). Between each incubation step and in advance of the detection, the plates were washed three times with PBST and twice with PBS.

[5] = target: T2, human TNFR1-Fc fusion protein; assay: ELISA, immobilized human TNFR1-Fc; remark: listed apart in the source
[6] = target: T1, TNFR1 on the surface of cells (HT1080, …); assay: cell-based or functional assay; remark: listed apart in the source
[7] = target: T2, human TNFR1-Fc fusion protein; assay: ELISA, human TNFR1-Fc
Protocol: as §1

[8] = target: T1, TNFR1 on the surface of cells (HT1080, …); assay: cell-based or functional assay; remark: listed apart in the source
[9] = target: MCSP (melanoma-associated chondroitin sulfate proteoglycan) on WM35 cells (human, UniProt Q6UVK1 30-2322); assay: cell-based or functional assay
Sequence of MCSP (melanoma-associated chondroitin sulfate proteoglycan) on WM35 cells (Q6UVK1 30-2322): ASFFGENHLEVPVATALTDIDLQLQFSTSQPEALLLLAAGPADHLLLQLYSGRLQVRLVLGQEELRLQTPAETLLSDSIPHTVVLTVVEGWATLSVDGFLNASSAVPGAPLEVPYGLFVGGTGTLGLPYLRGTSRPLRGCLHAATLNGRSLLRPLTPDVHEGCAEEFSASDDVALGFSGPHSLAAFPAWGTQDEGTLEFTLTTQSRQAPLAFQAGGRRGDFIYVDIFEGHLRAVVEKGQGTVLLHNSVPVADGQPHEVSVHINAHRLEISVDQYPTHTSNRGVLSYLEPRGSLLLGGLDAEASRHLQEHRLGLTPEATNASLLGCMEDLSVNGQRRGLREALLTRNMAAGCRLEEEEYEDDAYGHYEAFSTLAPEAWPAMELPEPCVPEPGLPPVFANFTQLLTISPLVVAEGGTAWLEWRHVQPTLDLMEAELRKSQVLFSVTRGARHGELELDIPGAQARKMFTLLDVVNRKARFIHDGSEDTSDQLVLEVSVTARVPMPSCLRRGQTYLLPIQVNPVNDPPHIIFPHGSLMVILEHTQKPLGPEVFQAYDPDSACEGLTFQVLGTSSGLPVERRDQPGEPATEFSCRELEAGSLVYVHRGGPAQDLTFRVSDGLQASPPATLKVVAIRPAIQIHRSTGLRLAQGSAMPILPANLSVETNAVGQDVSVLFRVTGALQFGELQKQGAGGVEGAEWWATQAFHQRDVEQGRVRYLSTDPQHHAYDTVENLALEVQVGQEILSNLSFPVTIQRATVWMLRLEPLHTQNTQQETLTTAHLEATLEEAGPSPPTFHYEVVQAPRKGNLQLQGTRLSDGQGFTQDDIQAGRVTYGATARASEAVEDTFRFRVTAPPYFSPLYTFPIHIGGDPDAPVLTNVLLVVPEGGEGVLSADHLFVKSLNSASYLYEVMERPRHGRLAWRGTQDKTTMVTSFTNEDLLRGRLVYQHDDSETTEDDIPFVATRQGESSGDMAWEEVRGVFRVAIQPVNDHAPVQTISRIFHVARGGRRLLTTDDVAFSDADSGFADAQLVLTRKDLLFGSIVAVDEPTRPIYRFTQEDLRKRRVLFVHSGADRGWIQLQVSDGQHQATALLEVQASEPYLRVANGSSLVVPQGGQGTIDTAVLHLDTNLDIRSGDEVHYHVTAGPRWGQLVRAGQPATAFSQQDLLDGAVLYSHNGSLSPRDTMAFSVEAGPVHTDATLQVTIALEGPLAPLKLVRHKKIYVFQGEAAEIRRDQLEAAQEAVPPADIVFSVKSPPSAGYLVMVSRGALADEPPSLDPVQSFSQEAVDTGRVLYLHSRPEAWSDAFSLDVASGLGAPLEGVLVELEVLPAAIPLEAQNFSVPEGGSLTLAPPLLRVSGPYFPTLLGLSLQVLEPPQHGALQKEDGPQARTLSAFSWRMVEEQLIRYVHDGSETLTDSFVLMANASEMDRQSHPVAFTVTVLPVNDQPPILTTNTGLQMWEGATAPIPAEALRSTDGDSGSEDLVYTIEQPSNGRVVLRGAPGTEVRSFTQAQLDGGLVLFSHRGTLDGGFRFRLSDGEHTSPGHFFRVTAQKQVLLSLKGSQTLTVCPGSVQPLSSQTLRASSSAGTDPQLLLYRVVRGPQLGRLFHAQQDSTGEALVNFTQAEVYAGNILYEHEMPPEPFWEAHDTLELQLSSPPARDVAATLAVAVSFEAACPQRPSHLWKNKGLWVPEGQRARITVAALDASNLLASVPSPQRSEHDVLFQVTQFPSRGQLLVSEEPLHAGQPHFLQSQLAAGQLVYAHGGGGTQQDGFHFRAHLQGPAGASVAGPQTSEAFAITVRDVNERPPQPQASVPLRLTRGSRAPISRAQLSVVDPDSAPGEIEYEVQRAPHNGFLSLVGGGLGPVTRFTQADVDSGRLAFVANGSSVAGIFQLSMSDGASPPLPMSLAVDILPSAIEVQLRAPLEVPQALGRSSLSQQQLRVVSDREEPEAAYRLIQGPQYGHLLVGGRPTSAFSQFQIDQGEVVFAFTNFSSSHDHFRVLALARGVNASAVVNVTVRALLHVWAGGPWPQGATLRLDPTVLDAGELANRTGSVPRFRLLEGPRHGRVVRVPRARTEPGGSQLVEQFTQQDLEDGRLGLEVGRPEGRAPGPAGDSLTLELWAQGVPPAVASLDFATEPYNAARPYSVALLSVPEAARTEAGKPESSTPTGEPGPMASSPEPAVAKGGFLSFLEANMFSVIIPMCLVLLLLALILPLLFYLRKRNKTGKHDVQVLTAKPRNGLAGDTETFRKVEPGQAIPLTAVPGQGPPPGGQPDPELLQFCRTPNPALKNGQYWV

Her3-Fc fusion protein = target: T3, Her3-Fc fusion protein (human, UniProt P21860 20-643); assay: ELISA, immobilized Her3-Fc fusion protein
T3 construct: also called immobilized Her3-Fc fusion protein; not shown: Fc part not described

B1: Fv13.7-Fc1k (Fc fusion)
chain 1: HVQLVQSGAEVKKPGSSVKVSCKASGYTFTDFYINWVRQAPGQGLEWIGEIVPSQGEAKYNDKFKARVTITADKSTSTAYMELSSLRSEDTAVYYCARWDFLDYWGQGTTVTVSSGTGGGSGPSVFLFPPKPKDTLMISRTPEVTCVVVDVSHEDPEVKFNWYVDGVEVHNAKTKPREEQYNSTYRVVSVLTVLHQDWLNGKEYKCKVSNKGLPSSIEKTISKAKGQPREPSVFPLAPSSKSTSGGTAALGCLVKDYFPSDIAVEWESGALTSGVHTFPAVLQSSGLYSLSSVVTVPSSSLGTQTYSCSVMHEALHNHYTQKSVEPKSC
chain 2: DVQMTQSPSSLSASVGDRVTITCRSSQSLLHSNGNTYLHWYQQKPGKAPKLLIYTVSNRFSGVPSRFSGSGSGTDFTLTISSLQPEDFATYYCSQSTHVPYTFGGGTKVEIKGTGGGSGPSVFLFPPKPKDTLMISRTPEVTCVVVDVSHEDPEVKFNWYVDGVEVHNAKTKPREEQYNSTYRVVSVLTVLHQDWLNGKEYKCKVSNKGLPSSIEKTISKAKGQPREPSVFIFPPSDEQLKSGTASVVCLVNNFYPRDIAVEWEVDNALQSGNSQESVTEQDSKDSTYSLSSTLTLSKADYEKHKVYSCSVMHEALHNHYTQKSFNRGEC
- factor of increased inhibitory potential (IL-8 inhibition) compared to ATROSAB [1]: 2.5 fold
- fold reduced bioactivity (IL-8 inhibition) compared to Fab13.7 [1]: 1.5 fold
- EC50 [2]: 1.18 nM
- IL-8 Inhibition IC50 [3]: 39.7 nM
- fold reduced binding affinity compared with Fab13.7 [4]: 1.9 fold

B2: Fab13.7 (Fab, V domains shown)
VH: HVQLVQSGAEVKKPGSSVKVSCKASGYTFTDFYINWVRQAPGQGLEWIGEIVPSQGEAKYNDKFKARVTITADKSTSTAYMELSSLRSEDTAVYYCARWDFLDYWGQGTTVTVSS
VL: DVQMTQSPSSLSASVGDRVTITCRSSQSLLHSNGNTYLHWYQQKPGKAPKLLIYTVSNRFSGVPSRFSGSGSGTDFTLTISSLQPEDFATYYCSQSTHVPYTFGGGTKVEIK
notes: Monovalent anti-human TNFR1 control Fab; Its variable domains are those used in Fv13.7-Fc1k and Fv13.7x-Fc1k
- EC50 [5]: 0.9 nM
- IL-8 Inhibition IC50 [6]: 13 nM
- IC50, IL-6 release (HeLa cells) [1]: 31.7 nM
- EC50 [2]: 0.61 nM
- IL-8 Inhibition IC50 [3]: 26.3 nM
- EC50 [7]: 0.17 nM
- IC50, Cell death induction [nM] (Kym-1 cells, 0.01 nM TNF) [8]: 9.5 nM
- IC50, IL-6 [nM] (HeLa cells, 0.1 nM TNF) [8]: 37.1 nM
- IC50, IL-8 [nM] (HT1080 cells, 0.1 nM TNF) [8]: 12.7 nM

B3: MCSPN-CD3N-hFc1k (bispecific antibody)
chain 1: QVQLVQSGAEVKKPGASVKVSCKASGYTFTRSWMNWVRQAPGQGLEWMGRIYPGDGDTNYNGKFKGRVTMTRDTSTSTVYMELSSLRSEDTAVYYCARGNTVVVPYTMDYWGQGTTVTVSSGGGGSGGGGSGGGGSDIQMTQSPSSLSASVGDRVTITCRASESVDSYGNSFMHWYQQKPGKAPKLLIYLASNLESGVPSRFSGSGSGTDFTLTISSLQPEDFATYYCQQNNEDPLTFGGGTKVEIKRAAADKTHTCPPCPAPPVAGPSVFLFPPKPKDTLMISRTPEVTCVVVDVSHEDPEVKFNWYVDGVEVHNAKTKPREEQYNSTYRVVSVLTVLHQDWLNGKEYKCKVSNKGLPSSIEKTISKAKGQPREPSVFPLAPSSKSTSGGTAALGCLVKDYFPSDIAVEWESGALTSGVHTFPAVLQSSGLYSLSSVVTVPSSSLGTQTYSCSVMHEALHNHYTQKSVEPKSC
chain 2: DIQMTQSPSSLSASVGDRVTITCRASQDIRNYLNWYQQKPGKAPKLLIYYTSRLHSGVPSRFSGSGSGTDFTFTISSLQPEDIATYYCQQGNTLPWTFGQGTKLEIKRGGGGSGGGGSGGGGSQVQLVQSGAEVKKPGSSVKVSCKASGGTFSGYTMNWVRQAPGQGLEWMGLINPYKGVSTYNGKFKDRVTITADKSTSTAYMELSSLRSEDTAVYYCARSGYYGDSDWYFDVWGQGTLVTVSSSGGGSGGGGSDKTHTCPPCPAPPVAGPSVFLFPPKPKDTLMISRTPEVTCVVVDVSHEDPEVKFNWYVDGVEVHNAKTKPREEQYNSTYRVVSVLTVLHQDWLNGKEYKCKVSNKGLPSSIEKTISKAKGQPREPSVFIFPPSDEQLKSGTASVVCLVNNFYPRDIAVEWEVDNALQSGNSQESVTEQDSKDSTYSLSSTLTLSKADYEKHKVYSCSVMHEALHNHYTQKSFNRGECGGGGSGGGGSGGGGSGTGGSGG
- Cytotxicity IC50 [9]: 0.2 nM

B4: Her3N-CD3N-hFc1k (bispecific antibody)
chain 1: QVQLQQSGPGLVKPSQTLSLTCAISGDSVSSNRAAWNWIRQSPSRGLEWLGRTYYRSKWYNDYAQSLKSRITINPDTPKNQFSLQLNSVTPEDTAVYYCARDGQLGLDALDIWGQGTMVTVSSGGGGSGGGGSGGGGSQAGLTQPPAVSVAPGQTASITCGRDNIGSRSVHWYQQKPGQAPVLVVYDDSDRPAGIPERFSGSNYENTATLTISRVEAGDEADYYCQVWGITSDHVVFGGGTKLTVLAAADKTHTCPPCPAPPVAGPSVFLFPPKPKDTLMISRTPEVTCVVVDVSHEDPEVKFNWYVDGVEVHNAKTKPREEQYNSTYRVVSVLTVLHQDWLNGKEYKCKVSNKGLPSSIEKTISKAKGQPREPSVFPLAPSSKSTSGGTAALGCLVKDYFPSDIAVEWESGALTSGVHTFPAVLQSSGLYSLSSVVTVPSSSLGTQTYSCSVMHEALHNHYTQKSVEPKSC
chain 2: B3 chain 2
notes: also called scFv3-43-CD3-Hinge-Fc1k
- EC50 (Her3-Fc fusion protein): 1 nM

B5: Her3N-CD3C-hFc1k (bispecific antibody)
chain 1: B4 chain 1
chain 2: DKTHTCPPCPAPPVAGPSVFLFPPKPKDTLMISRTPEVTCVVVDVSHEDPEVKFNWYVDGVEVHNAKTKPREEQYNSTYRVVSVLTVLHQDWLNGKEYKCKVSNKGLPSSIEKTISKAKGQPREPSVFIFPPSDEQLKSGTASVVCLVNNFYPRDIAVEWEVDNALQSGNSQESVTEQDSKDSTYSLSSTLTLSKADYEKHKVYSCSVMHEALHNHYTQKSFNRGECGGGGSGGGGSGGGGSGTDIQMTQSPSSLSASVGDRVTITCRASQDIRNYLNWYQQKPGKAPKLLIYYTSRLHSGVPSRFSGSGSGTDFTFTISSLQPEDIATYYCQQGNTLPWTFGQGTKLEIKRGGGGSGGGGSGGGGSQVQLVQSGAEVKKPGSSVKVSCKASGGTFSGYTMNWVRQAPGQGLEWMGLINPYKGVSTYNGKFKDRVTITADKSTSTAYMELSSLRSEDTAVYYCARSGYYGDSDWYFDVWGQGTLVTVSS
- EC50 (Her3-Fc fusion protein): 0.1 nM
